B1: Swi5-dependent recombination DNA repair protein 1 homolog (Homo sapiens), Q86XK3 (parent)
chain: MAEGEKNQDFTFKMESPSDSAVVLPSTPQASANPSSPYTNSSRKQPMSATLRERLRKTRFSFNSSYNVVKRLKVESEENDQTFSEKPASSTEENCLEFQESFKHIDSEFEENTNLKNTLKNLNVCESQSLDSGSCSALQNEFVSEKLPKQRLNAEKAKLVKQVQEKEDLLRRLKLVKMYRSKNDLSQLQLLIKKWRSCSQLLLYELQSAVSEENKKLSLTQLIDHYGLDDKLLHYNRSEEEFIDV
partner: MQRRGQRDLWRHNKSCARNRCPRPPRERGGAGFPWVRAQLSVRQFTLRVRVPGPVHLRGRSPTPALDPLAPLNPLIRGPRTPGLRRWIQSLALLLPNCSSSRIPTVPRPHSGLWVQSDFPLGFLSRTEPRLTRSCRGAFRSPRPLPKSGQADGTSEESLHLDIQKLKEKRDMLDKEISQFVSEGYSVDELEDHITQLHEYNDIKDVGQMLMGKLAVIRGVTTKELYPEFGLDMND

Variants of: B1
Conditions: with swi5_human SWI5, Q1ZZU3

Variant	effect of a mutation on the interaction
L173P	with no effect
